Reference: patent publication US9962507B2, “Droplet delivery device for delivery of fluids to the pulmonary system and methods of use” (PNEUMA RESPIRATORY, INC., priority 2016, dated 2018)

Experiments:
Type in all cases: physicochemical
[1] = Size exclusion chromatography (SEC) stability after aerosol generation with test device
Source text: Alternately, to determine the stability of active agent after droplet generation, the generated stream of droplets including the active agent may be collected and […] may be employed to monitor for any changes in large molecule aggregation and protein fragment content. Soluble protein aggregates and protein fragment content may be calculated by comparing respective peak area under the SEC-HPLC curve of dispensed protein solutions with controls (solutions remaining in the device reservoir). Drug solutions for testing include Enbrel, (ENBREL® single-use prefilled syringes in 25 mg (0.51 mL of a 50 mg/mL solution of etanercept), and insulin, (Humalog, 200 units/ml, 3 ml […] is performed with a […] 3 μm SEC-2000 LC column 300×7.8 mm, SecurityGuard cartridge kit and SecurityGuard cartridges GFC-2000, 4×3 mm ID. Fifty microliters of Enbrel from the syringe (ENBREL® single-use prefilled syringes in 25 mg/0.51 mL of a 50 mg/mL solution of etanercept) is diluted (4:1) (4 parts, 200 mcl of the mobile phase buffer solution to 1 part, 50 mcl Enbrel from syringe). Fifty microliter of the diluted Enbrel is injected and separation was performed at a flow rate of 1.0 ml/min. The mobile phase buffer system included a PHOS. BUFF. SALINE. […] UV detection is performed at 280 nm. […] Aerosol collection and SEC is performed in a similar fashion as for the Enbrel analysis and aerosol collection. […] Fifty microliters of the collected aerosol spray is injected onto the SEC column for analysis, while 50 mcl of the […] insulin solution is injected onto the SEC column for control samples.

[2] = Gravimetric analysis of delivered dose per actuation; details: average of five doses (actuations)
Method: Gravimetric analysis was performed by weighing the Enbrel solution filled ampule before and after dosing. The average of five doses (actuations) were analyzed with an average of 4.25 mg+/−0.15 mg. The total delivered dose of Enbrel per actuation is therefore […] per actuation.
Gravimetric analysis was performed by weighing the Insulin solution filled ampule before and after dosing. The average of five doses (actuations) were analyzed with an average of 5.01 mg+/−0.53 mg. The total delivered dose of Insulin per actuation is therefore 34.8 mcg per actuation.

[3] = Gel electrophoresis of active agent after droplet generation
Source text: To determine the stability of active agent after droplet generation, the generated stream of droplets including the active agent is collected and the molecular weight of the active agent is verified using gel electrophoresis.

[4] = Anderson Cascade Impactor testing of Albuterol sulfate aerosol from the droplet delivery device (Example B); details: Albuterol 0.5%, 28.3 lpm
[5] = Enbrel control (not aerosolized)

Row | droplets of an average diameter of less than about 4 μm ([4]; 10 actuations) | Fine ([4]; fraction summary table) | Throat ([4]; fraction summary table) | Substance | Peak Area %, Peak 4 [1, 5] | Peak Area %, Peak 5 [1, 5] | dose that leads to formation of molecular fragments ([1]; Enbrel, fragments with elution times of 13 and 25 minutes) | average solution mass per dose (actuation), ampule weighed before and after dosing [2] | change in electrophoretic mobility (molecular weight) of post-aerosol active agent versus control [3] | Peak Area %, Peak 3, Avg. ([1]; Insulin aerosolized, average of S1 and S2) | Peak Area %, Peak 3 ([1]; Insulin control (not aerosolized)) | ejected dose that forms a fragment ([1]; Insulin, fragment elutes at ~25 minutes)
1 |  |  |  | etanercept [Enbrel] | 0% | 0% | 4.6% | 4.25 mg | negligible change |  |  | 
2 |  |  |  | Insulin: insulin, Humalog, 200 units/ml, 3 ml kwikpens |  |  |  | 5.01 mg |  | 2.4905% | 0% | 2.5%
3 | over 70% | 3.5 | 4.6 | Albuterol sulfate |  |  |  |  |  |  |  | 
